Results published in the domain aggregation screens of Martell et al. (2025).

Assay: soluble fraction after stress (log2 fold change); higher = more stays soluble; pooled small domains, quantitative proteomics
Settings: stress: 50 degC
Method in brief: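 Quantitative proteomics served as the high-throughput read-out for pooled custom libraries of small protein domains. Each was stressed at 50°C. Aggregation propensity is expressed as the base-two log fold change in soluble protein after stress. A higher value means a larger share of the protein remains in solution.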

Sequence	soluble fraction (log2)
HMVKLSATVKELLDFVIAKKTVTSSNVSKHFDISAQNASGRLKKLHATGLVLGQKEVAESGGLEFVYRS	-0.183
HMEDVPYMIKLPSHHYLTKMVDGSTGWSLVQNSNTVVGSSKEELLKQYPEYEDFIVQEPLNV	0.101
HMDLHSQVFESYERKIREVLREGPLTFEEILHAFALKRHETVAQVITYLMDEGKMSDSGDGKLIYSG	-0.558
HMYDDLEPFDANGRLRWSDKELILAFGRHRGVTLQTLELNDPGYLRWLLSGNGPLEQQDRKRLEDILES	-1.27
HMEIYELTDQEQRVLEFIGEGMTNREIAKNMFLAEKTVKNYVSSLLRKLGLERRTQAAAMAVRLSV	-0.0994
HMSPVPRIEIELTSSKEDGSWTWRAVGAREPRGSLDGALLAKPAAVGDVLRVETDQFLDGMTVTAILPPRD	-0.325
HMFMLQAKRVPVSELENFKGIVAEDVVSQSRALILPRGSNLSWLSSSAMQNLSTRLALEGVESISIYL	-1.43
HMIRVVSIEDQPWFVAADVLKSLGMPTDKGVGKYLLALGSDERMLTTHGQIGGKGMAVTTIISESGLY	-0.46
HMEREQNILQGREVVERELRRLGLAEAYTVSDIAKALKFDDEEQFLAKVGFGDIQSRQISGAIALMEKN	0.0472
HMEVSTDADFEAVGIRAELIPILQKLGFTTVAQLKEVKATKLFNDIPGMRKKLKLDAVQNPTLQEIEGWLK	-0.0529
HMNYHDTLSYLMDAFGGADNLQKLLGVGPSALSNYRRREHLPLNQARKLSNIAPEFGFNLDPYTLKISVID	-1.57
HMATTTEPTSPPAATASLEAKINWLFLIFRNKKTVTASEQKFHAEDASTVVGKETLTDDGTTMTKGETAAG	0.0862
HMNMYTVTGRLVDQDGVPQANALVTIDSSSQQTRTSPQGFYLIKVFGTEPSTIKFLVDGYDPQIVNFTP	-0.21
HMEFEYTVVVPETRGKTIGEAGRILLDLELKYTSESMNIREDSKVIDQFPSPGTEVSKGSIIDLYLDE	0.0563
HMGPDALSIGRRVRQVRTARGMTLDELAAAVSRAPSQLSMIETGKREPKLSLLQAIARALGTTIDALLT	-0.176
HMAPVVELEDVTIVRGKATLLDRVNWVIDETDRWVIVGPNGAGKTTLLQVVSANLHPTSGKAMILDEVL	0.023
HMQPVEHLPTTDPLTTSAASEHERYEKVRWWLEEMQRTYETGDEVRAERIRLSLIEQMYKWEGE	-0.185
HMGTGADQVSWKTGDKVTHKKWGEGTVVKVSGSGNDKELDIAFPQQGVKRLLASFAPIKKVT	0.168
HMAPEQWYVLTSGQLPKGPYRLRHIVAMSKGDNWLVARKGAEQWTPLRHLPEFRQAQEANEYIQAIS	-0.968
HMDHKSALQELLAPRGLQPSYRLVEEAGPAHARVFTSEVSVDGVARGSGTGTTIKMSEQAAAREALASLG	0.223
HMKYKTKRDMILALMKKEILSGELKPRTRLLISEVASRYEVSEIPVREAFQVLIQEDLVRSTGAGFEVT	-0.744
HMKQISQNIHRLRKEKGMSQEQLAQALHVTRQTVSAWERGIAQPSLDVLGQIAQLLGVEPERLLYGE	0.153
HMDEPVDRLSPREQEVLALMAEGRSNAAIAHRLSITEKAVAKHINSIFTKLDLPLDEDDHRRVRAVLAWLR	-0.274
HMTTTTTYITNTDAVNIRQQATTSSTSLGKLAKNTILSVKKKSGDWYQITYKKQTAYIHASLVDKKTAKVT	-0.556
HMSQNISSTKLIPENIKIGMSVFVIPLQQKGIVQSLPNRSKEVLVQIGNAKINVKINNLKLIED	0.295
HMGSAKAQLYDLMNAHQVTRNQIQDIVAEKGYFPAGTPIENYPDDFVKGVLVGAWDQVHKAILDKEI	0.0946
HMHLNVYRDEDEAMLAFKDHLIGTHQPIRVRVEKALPDGTMGHKIVDTTIGRIVFNHNIPQD	-0.189
HMGYGEQEAEATKYMSLHAIMSADETLSKMYTPENQHKLMTHVMEQNGIKNVKDYLTPPSELP	-0.102

Sequence	soluble fraction (log2)
HMMTLEESYKLLQVSHNASDIEITKAFKKLALLYHPDKNPSNIDWANKAMASINVAYNTIITHRFKEK	-0.628
HMDRWTPLIVAVLIEGSHRFGELRSAIGGITPKVLTETLRSMERDGLVTRDQVPGVPPRVDYALTPLG	-0.334
HMPRDYYAVLEVSVSSTPVQIRQAYQRLARRYSPDVNFLDRDTEALFEEIVEAYRVLSNPTARTLYDRG	-4.48
HMNNYEGIVKSVSNSNVYIQVAGRTIGYTISPHTIIMVNGKNVPASELMPGQHVSYTNKGSKLSYININS	-0.103
HMYKLTYVVDGEVYLEETVSYGSKIAAAPAPEKEGYTFSGWEGLPEVMPAKDVTVSGSFTVN	-0.405
HMNTLGTNIAKLRESQKLTQEELGKLSGVSRVSIYKIETGQSTPRDTTLQNIAEALHTTPSALRS	0.142
HMQPLRQGDFVTSEVVKVQDGTAVLRTAQGTLLSASLTGNLGLLPGDRVETVVVEASPGRFVLRVLDIIR	-0.15
HMNTLPTDELMKYGIINEDLSFSKKLNADDIQKFLQGYTIVADNDKNRATFQLTENNTKLKVIFLER	-0.438
HMLGAGFDSDLTARENIFLNGALLGHSRAVMRGYYDDIVNFAELHDFMDVPVKNFSSGMTSRLAFSIATIG	0.00802
HMGNFGDLLKILLDEKELSMGELSKKSGIDKSTISRIANNKQKPNINHLEKMAIHLNINLEELLKASGYEF	-0.364
HMEDISLYKILRAHSIDNLKLSQWIIDSLKTKFSTIGELQDAKIDDIRMYRIQDVRIEKIKNAVTEYMA	-0.926
HMKRELFVEPGMRLEHTPSKTSGPVVSFIEGVIVVIKDQLGSEHRFDPVPGFFRHEGDLVALRSPLL	-0.282
HMKIDNPEYQKIMDMIPYFFQTRNYDEAIEALSYVIEQEPSFSEAYNKRATFYFMMGDFENSMKDIESTLA	-0.155
HMDRTIGEIGLVTETIDSTLESGRVMVDGLSWKARTSDNTVLEAGTRVQVKEIHGVTLTVEKA	0.166
HMRPADTAAMLKYLSSGAVKGIGGALAGRIIEAFGDESIKVIEEDPARLATVKGITLKKAKEISEEMQRVN	0.0712
HMKPTGWVRGDMGVVDKGQLSITQGTVNVRSGPGLSYEILDQVRRGDRFPVIKSQSGWHNISM	0.0818
HMEAVIGGIYRHYKGNNYKLLAVATHSETLEKMAVYQALYGEMGIWVRPLAMFMETIEKDGQSLKRFE	-1.78
HMGIVYGVIKENWDQDHPGMVKVEILQGESGKNVSDWIPVMSPYAGKEFGAYALPEIGTQAVVAFE	-0.0355
HMQLSASQQQILNHAAVNTDGKLVWFPETLKGGARKKVLDSLFSRALITTDGTHWFVAAEGYEALGIP	-0.877
HMLNSLDATQRLKLNKDGVVVFNFGKYVDQSVIDIFKKEKGYYNWMMSKDFSQQVKNIITKIYQEEIIG	-0.982
HMLLGPDALTNRELDVLALLERRLSNKEIGALLYISPRTVKRHTINIYQKLHVNNRRAAVAQAKALGLMPD	-1.79
HMDSGVPEWLASALRASPVAWKNFLALPPSHQRRYVGWISSARRDETRNRRIAEAISLLVEHKRLG	-1
HMQRGRTFSIVLNWKGRLLSTQMFFPQFTRPTKEQVTFEINKVYPGAMVYYYNPIEKDPSQPLV	-1.07
HMTATIEEVNELTQSARVNINVPYAAKDEAKAYGAKWDDVERTWYTTGENYAQNKDFFDGFNPTAS	0.156
HMAWIGEHTVTSEDTLSHIALKFYGHATPPYYKLIYEANKAIIGDNMNIIVPGQVLRIPALPEEL	-0.345
HMGTGQTNEKLAVLTNIQKTQEQILLTLGAKNPLVNLKQYRETLAKILSLSGYKNSNEFFLDPM	-0.0851
HMSYANVEWRDFLNSLDEKYRIVVILYYVQGFKTREIAEILQINQSTVRGRLAKAREKLEQQYN	-1.46
